Literature values, collected in PMC6522352.

Biological target: IL-9 (Mus musculus) (UniProt P15247)
UniProt P15247, sequence (P15247 19-144): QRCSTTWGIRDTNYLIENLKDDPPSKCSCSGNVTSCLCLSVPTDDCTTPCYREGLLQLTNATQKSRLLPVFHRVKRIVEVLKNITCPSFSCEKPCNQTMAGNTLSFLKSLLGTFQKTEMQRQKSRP

Kd: 0.1 nM
Substance: IL-9 receptor alpha (from UniProt Q01114)
